Test [1] has as its target mouse TIM3 on cells (mouse) (UniProt Q8VIM0). The test is described as follows: binding to activated mouse T cells, compared with TIM3.18 on human TIM-3.
Test [2] shares this target. The test is described as follows: binding to activated mouse T cells (method not described).

The results in this text go back to US20230382992A1.

Sequence of mouse TIM3 on cells (mouse) (Q8VIM0 20-281): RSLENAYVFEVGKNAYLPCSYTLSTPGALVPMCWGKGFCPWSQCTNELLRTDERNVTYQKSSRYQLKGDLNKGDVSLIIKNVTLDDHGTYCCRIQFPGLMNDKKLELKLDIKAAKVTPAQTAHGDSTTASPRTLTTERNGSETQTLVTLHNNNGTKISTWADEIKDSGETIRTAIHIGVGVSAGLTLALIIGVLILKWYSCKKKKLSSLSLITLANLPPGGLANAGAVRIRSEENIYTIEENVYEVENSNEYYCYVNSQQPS

The substance “RMT3-23 rat anti-mouse TIM-3 antibody (Bio-X-Cell)” showed a fold weaker EC50 than TIM3.18 on human TIM-3 in test [1] of 17 fold. The substance also registered an EC50 in test [2] of 1.7 nM.
